Reference: PMC5344332, “A new mode of DNA binding distinguishes Capicua from other HMG-box factors and explains its mutation patterns in cancer”

What was measured:
Hs CIC HMG-C1-His [1] = target: T1, Hs CIC HMG-C1-His (Homo sapiens, UniProt Q96RK0-2;Q96RK0-2 188-288;1451-1527); assay: EMSA; 60 mM Hepes pH 7.9, 20 mM Tris-HCl pH 7.9, 300 mM KCl, 5 mM EDTA, 5 mM DTT, 12% glycerol, 1 ug poly(dI-dC), 1 ug BSA, ~1 ng probe in 20 ul; 20 min on ice; 5% native PAGE in 0.5X TBE at 4 C; conditions: protein: recombinant; tags: His; copies: 1;1; label: 32P
T1 sequence (Q96RK0 1097-1197, chain 1 of 2): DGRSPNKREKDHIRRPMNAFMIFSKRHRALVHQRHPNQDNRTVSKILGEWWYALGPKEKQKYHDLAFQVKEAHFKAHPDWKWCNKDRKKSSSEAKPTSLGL
T1 sequence (Q96RK0 2360-2436, chain 2 of 2): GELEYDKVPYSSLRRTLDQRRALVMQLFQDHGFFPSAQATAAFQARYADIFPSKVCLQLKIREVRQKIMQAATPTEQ

Hs CIC HMG-C1-His [2] = target: T1, Hs CIC HMG-C1-His; assay: EMSA; similar affinity to longer probes; 60 mM Hepes pH 7.9, 20 mM Tris-HCl pH 7.9, 300 mM KCl, 5 mM EDTA, 5 mM DTT, 12% glycerol, 1 ug poly(dI-dC), 1 ug BSA, ~1 ng probe in 20 ul; 20 min on ice; 5% native PAGE in 0.5X TBE at 4 C; conditions: protein: recombinant; tags: His; copies: 1;1; label: 32P

Binder	binding result (Hs CIC HMG-C1-His [1])	binding result (Hs CIC HMG-C1-His [2])
CBS syn (dsDNA) DNA 1: GGGAATTAAGTTGAATGAATAGGCTGGGCC DNA 2: GGCCCAGCCTATTCATTCAACTTAATTCCC	binds	
ETV5 18-bp CBS (dsDNA) DNA 1: GGTTATGAATGAAAAACC DNA 2: GGTTTTTCATTCATAACC		binds
